± gives the standard deviation.
Test: protein stability index of a GFP-peptide fusion (GPS, HEK-293T) (PSI 1-6); higher = more stable
[1] = treatment: DMSO, c terminus: a fixed tail appended
[2] = treatment: MLN4924 1 uM, 8 h, c terminus: a fixed tail appended
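Note: 24-mer peptide tiles fused after GFP, lentivirally expressed, FACS-sorted into six equal bins by GFP/DsRed ratio, decoded by Illumina sequencing, PSI is the read-weighted mean bin number.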

Row | Sequence | protein stability index [1] | protein stability index [2] | protein stability index (treatment: DMSO, c terminus: native) | protein stability index (treatment: MLN4924 1 uM, 8 h, c terminus: native)
1 | AVGAAAEAEADEEADPPASDLPTP [SNX8] | 5.5 ± 0.27 | 5.56 ± 0.19 | – | –
2 | AVLLQLYVATEAILIALVGATPSY [SLC22A15] | 3.33 ± 0.37 | 3.26 ± 0.52 | – | –
3 | AVVSCTPVHLVDKLPLPIALRSHL [RAB40B] | 2.65 ± 0.12 | 1.98 ± 0.41 | – | –
4 | AWSQRSAAGRVCRPPGPAGTEQSR [CPOX] | 4.16 ± 0.22 | 4.29 ± 0.16 | – | –
5 | AYLVPYLVLLIIIGIPLFFLELAV [SLC6A17] | 3.83 ± 0.52 | 2.87 ± 0.28 | – | –
6 | AYRTQVSSCCLHICQGIRGLWGTT [PKD2L1] | 2.34 ± 0.45 | 2.27 ± 0.28 | – | –
7 | CAVTFFTILLSYGVILHSLKTQSL [OR4A15] | 3.59 ± 0.13 | 3.62 ± 0.69 | – | –
8 | CEIQVRTLASAGGPDNLVLLNPEK [ADD1] | 3.42 ± 0.42 | 3.45 ± 0.26 | – | –
9 | CFRFRQSSGRRVSLHCLLDQFDKD [DENND6A] | 2.5 ± 0.73 | 2.41 ± 0.53 | – | –
10 | CGKSFSRSSHLVIHERTHERERLY [ZNF263] | 2.71 ± 0.13 | 2.86 ± 0.33 | – | –
11 | CIENNIDLQVNRNFSLATNTKYSV [R3HDM1] | 2.59 ± 0.24 | 2.31 ± 0.43 | – | –
12 | CNFSIPEELEFQYRRVNELLLSIL [ZER1] | 2.34 ± 0.44 | 2.32 ± 0.42 | – | –
13 | CPLCTSDRGSCVSTTEGIQLAKEL [RHOBTB3] | 3.23 ± 0.29 | 3.58 ± 0.38 | – | –
14 | CPSPEALSPEPPVYSLQDFDTLAT [PRKX] | 4.61 ± 0.26 | 4.84 ± 0.053 | – | –
15 | CRCVASPPPDAAATAASSSASSPA [SLC25A25] | 4.52 ± 0.22 | 4.35 ± 0.29 | – | –
16 | CSKSYSRRSFLIEHQRSHTGERPH [ZSCAN9] | 3.42 ± 0.073 | 3.52 ± 0.36 | – | –
17 | CSQYDRVYCGAGVQKEHEEYMKNL [PCMTD2] | 2.93 ± 0.61 | 2.6 ± 0.55 | – | –
18 | CSTNKPEGYRVSQALRENTYPFLA [FAF2] | 2.54 ± 0.2 | 2.53 ± 0.4 | – | –
19 | CVDATRETNRLGRLINHSKCGNCQ [KMT5A] | 3.48 ± 0.41 | 3.84 ± 0.27 | – | –
20 | CYKGHLEMVRFLLEAGADQEHKTD [ANKRD17] | 2.91 ± 0.13 | 3.02 ± 0.32 | – | –
21 | CYLELFPAHLYFQAHGSEGLTFQG [PLEKHN1] | 2.89 ± 0.53 | 2.31 ± 0.26 | – | –
22 | DAILYYYQSGGRIRRPVNVPIDIF [KCNA3] | 2.2 ± 0.61 | 2.58 ± 0.76 | – | –
23 | DARMLDHLTKKDLRVHLKMVDSFH [PPFIA4] | 2.48 ± 0.37 | 2.78 ± 0.44 | – | –

Row | Sequence | protein stability index [1] | protein stability index [2] | protein stability index (treatment: DMSO, c terminus: native) | protein stability index (treatment: MLN4924 1 uM, 8 h, c terminus: native)
24 | DCMLSEEGATLLLRGLCANTVLRF [LRRC45] | 2.44 ± 0.48 | 2.42 ± 0.4 | – | –
25 | DDFRSKYQTEQSLRLLVESDINSI [KRT34] | 3.77 ± 0.098 | 3.94 ± 0.27 | – | –
26 | DDLRINLWHLAITDRSFNIVDIKP [PPP2R2C] | 2.19 ± 0.2 | 2.17 ± 0.19 | – | –
27 | DDPSLRKTHSSPALSQGHVTGSKT [PSD2] | 5.5 ± 0.32 | 5.5 ± 0.33 | – | –
28 | DEHEHPLTSELDPEKEQEIETIKI [MIA2] | 5.33 ± 0.42 | 5.36 ± 0.42 | – | –
29 | DENLDRMVPISKQPKEKIQAIIES [NOL4L] | 4.88 ± 0.38 | 4.83 ± 0.21 | – | –
30 | DETGITVASLERFSTYTSDKDENK [ZC3H15] | 5.14 ± 0.3 | 5.29 ± 0.087 | – | –
31 | DFTTAAEDQPINLCDKLPPATALG [NOL4L] | 4.83 ± 0.18 | 4.78 ± 0.1 | – | –
32 | DGHIDINEFLEAFRLVEKSCPEGD [PPEF2] | 4.67 ± 0.37 | 4.71 ± 0.17 | – | –
33 | DGKLLWEQELYNNFVYNSPRGYFH [WASL] | 2.07 ± 0.24 | 2.27 ± 0.41 | – | –
34 | DGTAENGIHPLSSSEVDELIHKAD [PALM] | 5.38 ± 0.2 | 5.35 ± 0.42 | – | –
35 | DGVKESSESTNTTIEDEDTKVRKQ [CAMK2A] | 5.65 ± 0.13 | 5.59 ± 0.29 | – | –
36 | DHLTTVLYLQLAICSSLQNLEKTI [C8orf76] | 3.21 ± 0.57 | 3.41 ± 0.35 | – | –
37 | DHVDLSLSCTLVPRSGEQAEGSPG [CDKN1A] | 4.91 ± 0.17 | 5.08 ± 0.23 | – | –
38 | DIELGCSTPLMEAAQEGHLELVKY [ANKRD17] | 4.03 ± 0.29 | 4.18 ± 0.27 | – | –
39 | DITAYLFGFFFGRTPLIKLSPKKT [CDS1] | 3.11 ± 0.64 | 2.73 ± 0.46 | – | –
40 | DKCMVCGGDGSGCSKQSGSFRKFR [ADAMTS4] | 2.14 ± 0.11 | 3.25 ± 0.85 | – | –
41 | DKITGQSLGYGFVNYSDPNDADKA [ELAVL3] | 4.81 ± 0.24 | 4.82 ± 0.15 | – | –
42 | DLDFKHHNYKEMRQLMKVVNEMCP [CPXM2] | 2.93 ± 0.21 | 2.66 ± 0.31 | – | –
43 | DLEAVVPQNGSETGWARKGLGNTW [ATP23] | 3.42 ± 0.2 | 3.38 ± 0.44 | – | –
44 | DLHFKMFDVGGQRSERKKWIHCFE [GNAI1] | 1.73 ± 0.25 | 2.64 ± 0.35 | – | –
45 | DLLCKTSHLSDTGISALVEIPKNC [WDR41] | 2.8 ± 0.23 | 2.78 ± 0.34 | – | –
46 | DLTSEDQIVLLKSSAIEVIMLRSN [VDR] | 2.28 ± 0.21 | 2.05 ± 0.34 | – | –

Row | Sequence | protein stability index [1] | protein stability index [2] | protein stability index (treatment: DMSO, c terminus: native) | protein stability index (treatment: MLN4924 1 uM, 8 h, c terminus: native)
47 | DMSWTCGNQDYKYRVSDVTKAGHS [VDR] | 2.73 ± 0.15 | 2.74 ± 0.095 | – | –
48 | DNDPRDLIGDFSKGYLFHTVAGKH [CDC25A] | 3.2 ± 0.13 | 3.41 ± 0.19 | – | –
49 | DPSVRLKIASLLGLLSKTAGFSPD [INTS4] | 2.57 ± 0.46 | 2.38 ± 0.26 | – | –
50 | DQEHNVAALKQAIKDKEAPLHVAQ [TEKT4] | 5.11 ± 0.19 | 5.18 ± 0.15 | – | –
51 | DQFDKDLPVYLKKDPAYFYGYVYF [DENND6A] | 2.46 ± 0.71 | 2.19 ± 0.59 | – | –
52 | DQHRLYKQIKAGAYDFPSPEWDTV [CAMK2A] | 3.29 ± 0.23 | 3.3 ± 0.24 | – | –
53 | DQLRSGSPPKSPRTTVHDKSAHQT [DNAJC4] | 5.26 ± 0.25 | 5.4 ± 0.14 | – | –
54 | DQPVMAVKTGEDGSNLDDAKGLAE [FANCE] | 5.44 ± 0.14 | 5.51 ± 0.26 | – | –
55 | DQTGSKSSNLLDLKNPFFRYTGTT [CARM1] | 3.44 ± 0.18 | 3.28 ± 0.13 | – | –
56 | DQVMEFSWSALWNITDETPDNCEM [ZER1] | 4.12 ± 0.27 | 4.04 ± 0.5 | – | –
57 | DREVAIYSKESIIFGASSVDFSLS [GNB5] | 2.98 ± 0.17 | 3.2 ± 0.27 | – | –
58 | DSLKFAVLMWLLTYVGALFNGLTL [RTN1] | 3.69 ± 1.4 | 3.378 ± 0.013 | – | –
59 | DSTMRILSNLVQHILKKYYGNGMR [RTP4] | 2.45 ± 0.73 | 2.46 ± 0.41 | – | –
60 | DSYTATGYGRAPGGLSLHDYKLLK [JUNB] | 3.36 ± 0.24 | 3.39 ± 0.21 | – | –
61 | DTCRTQLVWLVRELVKSGVLGADG [INTS3] | 2.51 ± 0.54 | 2.37 ± 0.24 | – | –
62 | DTQYGSSVDIWAIGCVFAELLTGQ [CDKL4] | 2.8 ± 0.59 | 2.37 ± 0.46 | – | –
63 | DTRLRYSFFVPRPTPSTPRPTPQD [ADAMTS4] | 3.64 ± 0.15 | 3.74 ± 0.089 | – | –
64 | DVDEDEPGGLVGSADVVSPSGHSD [PPFIA4] | 5.66 ± 0.36 | 5.47 ± 0.12 | – | –
65 | DVEAWFNTQTEELNQQVVSSSEQL [KRT36] | 4.65 ± 0.22 | 4.73 ± 0.15 | – | –
66 | DVIGDEICCWSFYGQGRKIAEVCC [KCTD10] | 2.42 ± 0.92 | 2.33 ± 0.54 | – | –
67 | DVNEQVMQVLGPEDLQSIIYKLEE [CEP70] | 3.7 ± 0.21 | 3.7 ± 0.24 | – | –
68 | DWYQRQRPSEIKDYSPYFKTIEDL [KRT16] | 2.74 ± 0.28 | 2.9 ± 0.32 | – | –
69 | DYPYSPPAFRFLTKMWHPNIYETG [CDC34] | 2.17 ± 0.62 | 1.94 ± 0.28 | – | –

Row | Sequence | protein stability index [1] | protein stability index [2] | protein stability index (treatment: DMSO, c terminus: native) | protein stability index (treatment: MLN4924 1 uM, 8 h, c terminus: native)
70 | DYQPTQAGRLMRPSVKYLSHPRVQ [RNF180] | 3.34 ± 0.22 | 3.4 ± 0.12 | – | –
71 | EAALNSKDAALATALGDKKSLEGD [LMNB1] | 5.52 ± 0.25 | 5.5 ± 0.078 | – | –
72 | EAEEEELRAELTKVEEEIVTLRQV [TPD52L2] | 4.25 ± 0.26 | 4.63 ± 0.51 | – | –
73 | EAEVTILFYFFLYQYCSIHCSDRK [CSTF3] | 2.57 ± 0.56 | 2.53 ± 0.15 | – | –
74 | EAGGRFVAFSGEGQSLRKKGRKP [UFD1] | – | – | 2.75 ± 0.78 | 3.29 ± 0.79
75 | EAQRASFLQNAVLAYVQASPVRTL [LRRC45] | 2.41 ± 0.29 | 2.3 ± 0.26 | – | –
76 | EDLEDLGAVAPPVSGDLTKEDIDL [NFE2L1] | 5.71 ± 0.4 | 5.3 ± 0.76 | – | –
77 | EDPVPGMLFFLPPGQHLSDYSQLN [FBXO34] | 3.03 ± 0.35 | 3.11 ± 0.38 | – | –
78 | EDSLAALSSVPSEAQISDPFAPEP [SNAP91] | 5.33 ± 0.34 | 5.34 ± 0.18 | – | –
79 | EEEKEPLAVDSWWLDPGHTAVAQA [SERTAD1] | 4.8 ± 0.27 | 4.88 ± 0.23 | – | –
80 | EEEKKKMEESKAKFENLCKLMKEI [HSP90AB1] | 4.43 ± 0.36 | 4.58 ± 0.49 | – | –
81 | EEEQDILQRLRENAAHLGDKRRDL [TRIM39] | 5.06 ± 0.26 | 4.97 ± 0.059 | – | –
82 | EERAAPVLSCEAATQTERRLDLAA [FAM189A2] | 5.05 ± 0.28 | 4.99 ± 0.12 | – | –
83 | EERRVVHASGDASYSAGDSGDAAA [EPB41L3] | 5.49 ± 0.32 | 5.42 ± 0.17 | – | –
84 | EESEEERGLEPGKGRHHRGRGGEP [CHGB] | 5.59 ± 0.17 | 5.51 ± 0.25 | – | –
85 | EESKEPKEEKQRRRCKPKKPTRRD [GNAS] | 5.42 ± 0.11 | 5.44 ± 0.16 | – | –
86 | EFHQRRSEIIQITTGSKELDKLLQ [RAD51] | 2.93 ± 0.2 | 3.03 ± 0.51 | – | –
87 | EGEEDATSEVDKRRTRPRHHHGRS [CHGB] | 5.35 ± 0.47 | 5.33 ± 0.28 | – | –
88 | EGGTAVTGGQTVVNPWIIIGGVAT [SEPHS2] | 2.68 ± 0.29 | 2.77 ± 0.43 | – | –
89 | EGKMYTARKGKGAFCNGQKLQVSQ [IMPA1] | 3.52 ± 0.33 | 3.93 ± 0.32 | – | –
